PMC11574045, “A cofactor-induced repressive type of transcription factor condensation can be induced by synthetic peptides to suppress tumorigenesis” (The EMBO Journal, 2024)

B1: CDKN2C (protein, UniProt P42773 1-168, looked up)
Cyclin-dependent kinase 4 …: MAEPWGNELASAAARGDLEQLTSLLQNNVNVNAQNGFGRTALQVMKLGNPEIARRLLLRGANPDLKDRTGFAVIHDAARAGFLDTLQTLLEFQADVNIEDNEGNLPLHLAAKEGHLRVVEFLVKHTASNVGHRNHKGDTACDLARLYGRNEVVSLMQANGAGGATNLQ
B2: ZNF567 (protein, UniProt Q8N184 1-647, looked up)
Zinc finger protein 567: MAQGSVSFNDVTVDFTQEEWQHLDHAQKTLYMDVMLENYCHLISVGCHMTKPDVILKLERGEEPWTSFAGHTCLEENWKAEDFLVKFKEHQEKYSRSVVSINHKKLVKEKSKIYEKTFTLGKNPVNSKNLPPEYDTHGRILKNVSELIISNLNPARKRLSEYNGYGKSLLSTKQETTHPEVKSHNQSARAFSHNEVLMQYQKTETPAQSFGYNDCEKSFLQRGGLITHSRPYKGENPSVYNKKRRATNIEKKHTCNECGKSFCRKSVLILHQGIHSEEKPYQCHQCGNAFRRKSYLIDHQRTHTGEKPFVCNECGKSFRLKTALTDHQRTHTGEKSYECLQCRNAFRLKSHLIRHQRTHTGEKPYECNDCGKSFRQKTTLSLHQRIHTGEKPYICKECGKSFHQKANLTVHQRTHTGEKPYICNECGKSFSQKTTLALHEKTHNEEKPYICSECGKSFRQKTTLVAHQRTHTGEKSYECPHCGKAFRMKSYLIDHHRTHTGEKPYECNECGKSFSQKTNLNLHQRIHTGEKPYVCNECGKSFRQKATLTVHQKIHTGQKSYECPQCGKAFSRKSYLIHHQRTHTGEKPYKCSECGKCFRQKTNLIVHQRTHTGEKPYVCNECGKSFSYKRNLIVHQRTHKGENIEMQ
B3: ZNF555 (protein, UniProt Q8NEP9 1-628, looked up)
Zinc finger protein 555: MDSVVFEDVAVDFTLEEWALLDSAQRDLYRDVMLETFQNLASVDDETQFKASGSVSQQDIYGEKIPKESKIATFTRNVSWASVLGKIWDSLSIEDQTTNQGRNLSRNHGLERLCESNDQCGEALSQIPHLNLYKKIPPGVKQYEYNTYGKVFMHRRTSLKSPITVHTGHKPYQCQECGQAYSCRSHLRMHVRTHNGERPYVCKLCGKTFPRTSSLNRHVRIHTAEKTYECKQCGKAFIDFSSLTSHLRSHTGEKPYKCKECGKAFSYSSTFRRHTITHTGEKPYKCKECAEAFSYSSTFRRHMISHTGEKPHKCKECGEAFSYSSAFRRHMITHTGEKPYECKQCGKTFIYLQSFRRHERIHTGEKPYECKQCGKTFIYPQSFRRHERTHGGEKPYECNQCGKAFSHPSSFRGHMRVHTGEKPYECKQCGKTFNWPISLRKHMRTHTREKPYECKQCGKAFSLSACFREHVRMHPEDKSYECKLCGKAFYCHISLQKHMRRHTAEKLYKCKQCGKAFSWPELLQQHVRTHTVEKPYECKECGKVFKWPSSLPIHMRLHTGEKPYQCKHCGKAFNCSSSLRRHVRIHTTEKQYKCNVGHPPANEFMCSASEKSHQERDLIKVVNMVLPL
B4: ZNF576 (protein, UniProt Q9H609 1-170, looked up)
Zinc finger protein 576: MEDPNPEENMKQQDSPKERSPQSPGGNICHLGAPKCTRCLITFADSKFQERHMKREHPADFVAQKLQGVLFICFTCARSFPSSKALITHQRSHGPAAKPTLPVATTTAQPTFPCPDCGKTFGQAVSLRRHRQMHEVRAPPGTFACTECGQDFAQEAGLHQHYIRHARGEL
B5: ZNF671 (protein, UniProt Q8TAW3 1-534, looked up)
Zinc finger protein 671: MLSPVSRDASDALQGRKCLRPRSRRLPLPAAVRAHGPMAELTDSARGCVVFEDVFVYFSREEWELLDDAQRLLYHDVMLENFALLASLGIAFSRSRAVMKLERGEEPWVYDQVDMTSATEREAQRGLRPGCWHGVEDEEVSSEQSIFVAGVSEVRTLMAELESHPCDICGPILKDTLHLAKYHGGKARQKPYLCGACGKQFWFSTDFDQHQNQPNGGKLFPRKEGRDSVKSCRVHVPEKTLTCGKGRRDFSATSGLLQHQASLSSMKPHKSTKLVSGFLMGQRYHRCGECGKAFTRKDTLARHQRIHTGERPYECNECGKFFSQSYDLFKHQTVHTGERPYECSECGKFFRQISGLIEHRRVHTGERLYQCGKCGKFFSSKSNLIRHQEVHTGARPYVCSECGKEFSRKHTLVLHQRTHTGERPYECSECGKAFSQSSHLNVHWRIHSSDYECSRCGKAFSCISKLIQHQKVHSGEKPYECSKCGKAFTQRPNLIRHWKVHTGERPYVCSECGREFIRKQTLVLHQRVHAGEKL
B6: ZNF581 (protein, UniProt Q9P0T4 1-197, looked up)
Zinc finger protein 581: MLVLPSPCPQPLAFSSVETMEGPPRRTCRSPEPGPSSSIGSPQASSPPRPNHYLLIDTQGVPYTVLVDEESQREPGASGAPGQKKCYSCPVCSRVFEYMSYLQRHSITHSEVKPFECDICGKAFKRASHLARHHSIHLAGGGRPHGCPLCPRRFRDAGELAQHSRVHSGERPFQCPHCPRRFMEQNTLQKHTRWKHP
B7: ZNF586 (protein, UniProt Q9NXT0 1-402, looked up)
Zinc finger protein 586: MAAAAALRAPAQSSVTFEDVAVNFSLEEWSLLNEAQRCLYRDVMLETLTLISSLGCWHGGEDEAAPSKQSTCIHIYKDQGGHSGERPYECGEYRKLFKNKSCLTEPRRDHKHRNVRTGERPYECSKYGKLFHQKPTLHIHERFHTGQKTYECSECGKSFHQSSSLLQRQTLHTRERPYECIECGKAFAEKSSLINHRKVHSGAKRYECNECGKSFAYTSSLIKHRRIHTGERPYECSECGRSFAENSSLIKHLRVHTGERPYECVECGKSFRRSSSLLQHQRVHTRERPYECSECGKSFSLRSNLIHHQRVHTGERHECGQCGKSFSRKSSLIIHLRVHTGERPYECSDCGKSFAENSSLIKHLRVHTGERPYECIDCGKSFRHSSSFRRHQRVHTGMRPYK
B8: ZNF512 (protein, UniProt Q96ME7 1-567, looked up)
Zinc finger protein 512: MSSRLGAVPATSGPTTFKQQRSTRIVGAKNSRTQCSIKDNSFQYTIPHDDSLSGSSSASSCEPVSDFPASFRKSTYWMKMRRIKPAATSHVEGSGGVSAKGKRKPRQEEDEDYREFPQKKHKLYGRKQRPKTQPNPKSQARRIRKEPPVYAAGSLEEQWYLEIVDKGSVSCPTCQAVGRKTIEGLKKHMENCKQEMFTCHHCGKQLRSLAGMKYHVMANHNSLPILKAGDEIDEPSERERLRTVLKRLGKLRCMRESCSSSFTSIMGYLYHVRKCGKGAAELEKMTLKCHHCGKPYRSKAGLAYHLRSEHGPISFFPESGQPECLKEMNLESKSGGRVQRRSAKIAVYHLQELASAELAKEWPKRKVLQDLVPDDRKLKYTRPGLPTFSQEVLHKWKTDIKKYHRIQCPNQGCEAVYSSVSGLKAHLGSCTLGNFVAGKYKCLLCQKEFVSESGVKYHINSVHAEDWFVVNPTTTKSFEKLMKIKQRQQEEEKRRQQHRSRRSLRRRQQPGIELPETELSLRVGKDQRRNNEELVVSASCKEPEQEPVPAQFQKVKPPKTNHKRGRK
B9: CCNH (protein, UniProt P51946 1-323, looked up)
Cyclin-H: MYHNSSQKRHWTFSSEEQLARLRADANRKFRCKAVANGKVLPNDPVFLEPHEEMTLCKYYEKRLLEFCSVFKPAMPRSVVGTACMYFKRFYLNNSVMEYHPRIIMLTCAFLACKVDEFNVSSPQFVGNLRESPLGQEKALEQILEYELLLIQQLNFHLIVHNPYRPFEGFLIDLKTRYPILENPEILRKTADDFLNRIALTDAYLLYTPSQIALTAILSSASRAGITMESYLSESLMLKENRTCLSQLLDIMKSMRNLVKKYEPPRSEEVAVLKQKLERCHSAELALNVITKKRKGYEDDDYVSKKSKHEEEEWTDDDLVESL
B10: ZNF770 (protein, UniProt Q6IQ21 1-691, looked up)
Zinc finger protein 770: MMAENNLKMLKIQQCVVANKLPRNRPYVCNICFKHFETPSKLARHYLIHTGQKPFECDVCHKTFRQLVHLERHQLTHSLPFKCSICQRHFKNLKTFVKHQQLHNETYQNNVKQVRRLLEAKQEKSMYGVYNTFTTEERWALHPCSKSDPMYSMKRRKNIHACTICGKMFPSQSKLDRHVLIHTGQRPFKCVLCTKSFRQSTHLKIHQLTHSEERPFQCCFCQKGFKIQSKLLKHKQIHTRNKAFRALLLKKRRTESRPLPNKLNANQGGFENGEIGESEENNPLDVHSIYIVPFQCPKCEKCFESEQILNEHSCFAARSGKIPSRFKRSYNYKTIVKKILAKLKRARSKKLDNFQSEKKVFKKSFLRNCDLISGEQSSEQTQRTFVGSLGKHGTYKTIGNRKKKTLTLPFSWQNMGKNLKGILTTENILSIDNSVNKKDLSICGSSGEEFFNNCEVLQCGFSVPRENIRTRHKICPCDKCEKVFPSISKLKRHYLIHTGQRPFGCNICGKSFRQSAHLKRHEQTHNEKSPYASLCQVEFGNFNNLSNHSGNNVNYNASQQCQAPGVQKYEVSESDQMSGVKAESQDFIPGSTGQPCLPNVLLESEQSNPFCSYSEHQEKNDVFLYRCSVCAKSFRSPSKLERHYLIHAGQKPFECSVCGKTFRQAPHWKRHQLTHFKERPQGKVVALDSVM
B11: CDX1 (protein, UniProt P47902 1-265, looked up)
Homeobox protein CDX-1: MYVGYVLDKDSPVYPGPARPASLGLGPQAYGPPAPPPAPPQYPDFSSYSHVEPAPAPPTAWGAPFPAPKDDWAAAYGPGPAAPAASPASLAFGPPPDFSPVPAPPGPGPGLLAQPLGGPGTPSSPGAQRPTPYEWMRRSVAAGGGGGSGKTRTKDKYRVVYTDHQRLELEKEFHYSRYITIRRKSELAANLGLTERQVKIWFQNRRAKERKVNKKKQQQQQPPQPPMAHDITATPAGPSLGGLCPSNTSLLATSSPMPVKEEFLP
B12: ZNF563 (protein, UniProt Q8TA94 1-476, looked up)
Zinc finger protein 563: MDAVAFEDVAVNFTQEEWALLGPSQKNLYRYVMQETIRNLDCIRMIWEEQNTEDQYKNPRRNLRCHMVERFSESKDSSQCGETFSLIRDSIVNNSICPGEDPCQSAECEEVIMGHLSLNSHIRVDSGHKPHEYQEYGEKPHTHKQRGKAFSYHHSFQSRGRPHTGKKRYECKECGKTFSSRRNLRRHMVVQGGNRPYKCKLCGKAFFWPSLLRMHERTHTGEKPYECKQCSKAFPFYSSYRRHERMHTGEKPYECKQCSKALPDSSSYIRHERTHTGEKPYTCKQCGKAFSVSSSLRRHETTHSAEKPYECKQCGKTFHHLGSFQIHMKRHTGDRPHKCKICGKGFDRPSLVRYHERIHTGEKPYECKQCGKTLSHSSSFRRHMIMHTGGGPHKCKICGKAFVYPSVCQRHEKSHSGEKPYECKQCGKALSHSSSFRRHMVMHTGDGPNKCKVCGKAFVYPSVCQRHEKTHWRETI
B13: ZNF550 (protein, UniProt Q7Z398 1-422, looked up)
Zinc finger protein 550: MAETKDAAQMLVTFKDVAVTFTREEWRQLDLAQRTLYREVMLETCGLLVSLGHRVPKPELVHLLEHGQELWIVKRGLSHATCAGDRAQVHTREPTTYPPVLSERAFLRGSLTLESSTSSDSRLGRARDEEGLLEMQKGKVTPETDLHKETHLGKVSLEGEGLGTDDGLHSRALQEWLSADVLHECDSQQPGKDALIHAGTNPYKCKQCGKGFNRKWYLVRHQRVHTGMKPYECNACGKAFSQSSTLIRHYLIHTGEKPYKCLECGKAFKRRSYLMQHHPIHTGEKPYECSQCRKAFTHRSTFIRHNRTHTGEKPFECKECEKAFSNRAHLIQHYIIHTGEKPYDCMACGKAFRCSSELIQHQRIHTGEKPYECTQCGKAFHRSTYLIQHSVIHTGEMPYKCIECGKAFKRRSHLLQHQRVHT

Each molecule was assayed on HEK293FT cells transfected with TF library (assay: Screening of TF condensates based on fluorescent puncta). Conditions: Figure 1B numerical data; TF library screen, one value per transcriptional factor.
Format: cell-based
Summary of the method: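 TF plasmids (final 1.6 μg/ml) reverse-transfected with PEI (4.8 μg/ml) into HEK293FT cells; after 60 h, cells cultured ±glucose for 12 h, fixed in 4% PFA and immunostained for Flag or GAL4 tags with Alexa 488 secondaries. Puncta scored by automated imaging of 50 random fields per well.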
With B1 the “Z score of condensed fraction” value was -0.5488.
In the case of B2, the “Z score of condensed fraction” value is reported as -0.7114.
In the case of B3, the “Z score of condensed fraction” value is reported as -0.894.
With B4 the “Z score of condensed fraction” value was -0.3795.
For B5, the “Z score of condensed fraction” value was -0.9445.
With B6 the “Z score of condensed fraction” value was -0.1395.
With B7 the “Z score of condensed fraction” value was 0.1456.
B8 was tested, and the “Z score of condensed fraction” value was -0.5967.
For B9, the “Z score of condensed fraction” value was -0.9342.
For B10, the “Z score of condensed fraction” value was -0.4682.
In the case of B11, the “Z score of condensed fraction” value is reported as 2.938.
B12 was tested, and the “Z score of condensed fraction” value was -0.4635.
In the case of B13, the “Z score of condensed fraction” value is reported as -0.5599.
